Reference: publication doi:10.1101/2022.04.11.487922
Where two headings read alike, the source gives them in different places.

Experiments:
[1] = target: T1, p50 (in p50/RelA);RelA FL (in p50/RelAFL) (Mus musculus;Mus musculus, UniProt P25799;Q04207 39-350;19-549, |); test: EMSA
[2] = target: T2, p50 (in p50/RelA);RelA RHD (in p50/RelARHD) (Mus musculus;Mus musculus, UniProt P25799;Q04207 39-350;19-321, |); test: EMSA
[3] = target: T1, p50 (in p50/RelA);RelA FL (in …); test: fluorescence anisotropy
[4] = target: T2, p50 (in p50/RelA);RelA RHD (in …); test: fluorescence anisotropy
[5] = target: T1, p50 (in p50/RelA);RelA FL (in …); test: EMSA; remark: listed apart in the source
[6] = target: T2, p50 (in p50/RelA);RelA RHD (in …); test: EMSA; remark: listed apart in the source
[7] = target: T1, p50 (in p50/RelA);RelA FL (in …); test: fluorescence anisotropy; remark: listed apart in the source
[8] = target: T2, p50 (in p50/RelA);RelA RHD (in …); test: fluorescence anisotropy; remark: listed apart in the source
[9] = target: T1, p50 (in p50/RelA);RelA FL (in …); test: fluorescence anisotropy; remark: listed apart in the source
[10] = target: T2, p50 (in p50/RelA);RelA RHD (in …); test: fluorescence anisotropy; remark: listed apart in the source
[11] = target: T1, p50 (in p50/RelA);RelA FL (in …); test: fluorescence anisotropy; remark: listed apart in the source
[12] = target: T2, p50 (in p50/RelA);RelA RHD (in …); test: fluorescence anisotropy; remark: listed apart in the source
[13] = target: T1, p50 (in p50/RelA);RelA FL (in …); test: EMSA; remark: listed apart in the source
[14] = target: T2, p50 (in p50/RelA);RelA RHD (in …); test: EMSA; remark: listed apart in the source
[15] = target: T1, p50 (in p50/RelA);RelA FL (in …); test: EMSA; remark: listed apart in the source
[16] = target: T2, p50 (in p50/RelA);RelA RHD (in …); test: EMSA; remark: listed apart in the source
[17] = target: T2, p50 (in p50/RelA);RelA RHD (in …); test: EMSA; remark: listed apart in the source
[18] = target: T1, p50 (in p50/RelA);RelA FL (in …); test: EMSA; remark: listed apart in the source

T1 sequence (P25799 39-350, chain 1 of 2): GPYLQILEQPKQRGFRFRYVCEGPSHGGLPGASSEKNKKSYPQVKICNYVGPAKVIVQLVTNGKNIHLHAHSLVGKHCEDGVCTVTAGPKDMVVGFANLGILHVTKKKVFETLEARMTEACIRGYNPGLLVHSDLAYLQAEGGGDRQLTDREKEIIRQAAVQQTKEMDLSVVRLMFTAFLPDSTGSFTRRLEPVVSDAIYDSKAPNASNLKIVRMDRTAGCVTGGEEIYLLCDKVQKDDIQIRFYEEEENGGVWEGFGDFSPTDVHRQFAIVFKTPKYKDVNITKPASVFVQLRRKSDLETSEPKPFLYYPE
T1 sequence (Q04207 19-549, chain 2 of 2): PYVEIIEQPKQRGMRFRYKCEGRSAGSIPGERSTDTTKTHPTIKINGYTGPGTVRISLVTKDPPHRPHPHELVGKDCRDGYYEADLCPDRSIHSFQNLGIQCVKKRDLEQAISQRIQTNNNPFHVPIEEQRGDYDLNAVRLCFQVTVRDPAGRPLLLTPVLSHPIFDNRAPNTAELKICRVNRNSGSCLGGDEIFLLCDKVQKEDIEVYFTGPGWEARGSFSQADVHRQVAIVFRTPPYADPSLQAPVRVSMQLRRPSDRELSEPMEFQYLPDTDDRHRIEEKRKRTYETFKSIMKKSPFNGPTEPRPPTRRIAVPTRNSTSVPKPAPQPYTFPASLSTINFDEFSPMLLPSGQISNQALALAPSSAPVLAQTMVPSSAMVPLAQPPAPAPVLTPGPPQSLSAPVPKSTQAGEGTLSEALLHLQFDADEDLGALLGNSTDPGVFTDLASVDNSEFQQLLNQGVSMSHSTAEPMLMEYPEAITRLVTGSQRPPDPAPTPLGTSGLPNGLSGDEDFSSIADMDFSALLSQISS
T2 sequence (P25799 39-350, chain 1 of 2): as the sequence (P25799 39-350, chain 1 of 2) above
T2 sequence (Q04207 19-321, chain 2 of 2): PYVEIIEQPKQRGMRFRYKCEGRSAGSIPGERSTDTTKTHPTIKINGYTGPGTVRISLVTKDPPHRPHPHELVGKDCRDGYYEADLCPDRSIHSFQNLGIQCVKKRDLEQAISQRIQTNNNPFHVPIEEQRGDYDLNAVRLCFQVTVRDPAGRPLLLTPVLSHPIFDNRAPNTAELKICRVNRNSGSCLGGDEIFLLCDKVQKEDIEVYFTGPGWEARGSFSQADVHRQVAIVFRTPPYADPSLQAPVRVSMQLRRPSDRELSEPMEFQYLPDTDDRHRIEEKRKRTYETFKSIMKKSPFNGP

B1: NFKBIA, site 2 scrambled (dsDNA)
DNA 1: CTGACTGGCTTGGAAATTCCCCGAGCCTGACCCCGCCCCAAGCACTGACACAGCCAGCG
DNA 2: CGCTGGCTGTGTCAGTGCTTGGGGCGGGGTCAGGCTCGGGGAATTTCCAAGCCAGTCAG
[1]
  binding result: binds
[2]
  binding result: binds

B2: Random hairpin (structured_DNA)
DNA: GTAGACGTGCTCCCCCAGCACGTCTAC
modifications: 5' 5AmMC6
[3]
  Kd: 130 ± 40 nM
[4]
  Kd: 1500 ± 100 nM

B3: HIV LTR, site 2 scrambled (dsDNA)
DNA 1: AAGGGACTTTCCGCTGGTCGACTGTCAGGGAGG
DNA 2: CCTCCCTGACAGTCGACCAGCGGAAAGTCCCTT
[5]
  binding result: binds
[6]
  binding result: binds

B4: NFKBIA tandem dsDNA (anisotropy), forward label (dsDNA)
DNA 1: CTTGGAAATTCCCCGAGCCTGACCCCGCCCCAGAGAAATCCCCAG
DNA 2: CTGGGGATTTCTCTGGGGCGGGGTCAGGCTCGGGGAATTTCCAAG
modifications: 5' 5AmMC6
[7]
  Kd: 1.5 ± 0.7 nM
[8]
  Kd: 1.7 ± 0.5 nM

B5: NFKBIA tandem dsDNA (anisotropy), reverse label (dsDNA)
DNA 1: CTTGGAAATTCCCCGAGCCTGACCCCGCCCCAGAGAAATCCCCAG
DNA 2: CTGGGGATTTCTCTGGGGCGGGGTCAGGCTCGGGGAATTTCCAAG
modifications: 5' 5AmMC6
[9]
  Kd: 5.1 ± 0.4 nM
[10]
  Kd: 10 ± 2 nM

B6: HIV LTR tandem dsDNA (anisotropy) (dsDNA)
DNA 1: CAAGGGACTTTCCGCTGGGGACTTTCCAGG
DNA 2: CCTGGAAAGTCCCCAGCGGAAAGTCCCTTG
modifications: 5' 5AmMC6
[11]
  Kd: 1.3 ± 0.4 nM
[12]
  Kd: 1.7 ± 0.4 nM

B7: HIV LTR, site 1 scrambled (dsDNA)
DNA 1: AAGTCGACTGTCGCTGGGGACTTTCCAGGGAGG
DNA 2: CCTCCCTGGAAAGTCCCCAGCGACAGTCGACTT
[13]
  binding result: binds
[14]
  binding result: binds

B8: NFKBIA tandem kB 59 bp (EMSA) (dsDNA)
DNA 1: CTGACTGGCTTGGAAATTCCCCGAGCCTGACCCCGCCCCAGAGAAATCCCCAGCCAGCG
DNA 2: CGCTGGCTGGGGATTTCTCTGGGGCGGGGTCAGGCTCGGGGAATTTCCAAGCCAGTCAG
[15]
  binding result: binds
[16]
  binding result: binds

B9: NFKBIA, site 1 scrambled (dsDNA)
DNA 1: CTGACTGGCTTAGTCACGTCACGAGCCTGACCCCGCCCCAGAGAAATCCCCAGCCAGCG
DNA 2: CGCTGGCTGGGGATTTCTCTGGGGCGGGGTCAGGCTCGTGACGTGACTAAGCCAGTCAG
[1]
  binding result: binds
[2]
  binding result: binds

B10: HIV LTR tandem kB 33 bp (EMSA) (dsDNA)
DNA 1: AAGGGACTTTCCGCTGGGGACTTTCCAGGGAGG
DNA 2: CCTCCCTGGAAAGTCCCCAGCGGAAAGTCCCTT
[17]
  binding result: binds
[18]
  binding result: binds
